Results on five molecules are retold here after US20250042940A1 (CREIGHTON UNIVERSITY, published 2025).

Non-standard residues stand in square brackets, D forms with d. No end group written: not given here. Pmb = 4-(di-t-butylphosphonomethyl)-3-methylbutyric acid, phosphonate replacement of phospho-Thr; pT = C[C@@H](OP(=O)(O)O)[C@H](N)C(=O)O; pS = N[C@@H](COP(=O)(O)O)C(=O)O

Series [1] deals with T1, 14-3-3ε protein (purified, as used in DSF and in the SPR of the Pmb peptide) (UniProt P62258 1-255).
T1 sequence (looked up): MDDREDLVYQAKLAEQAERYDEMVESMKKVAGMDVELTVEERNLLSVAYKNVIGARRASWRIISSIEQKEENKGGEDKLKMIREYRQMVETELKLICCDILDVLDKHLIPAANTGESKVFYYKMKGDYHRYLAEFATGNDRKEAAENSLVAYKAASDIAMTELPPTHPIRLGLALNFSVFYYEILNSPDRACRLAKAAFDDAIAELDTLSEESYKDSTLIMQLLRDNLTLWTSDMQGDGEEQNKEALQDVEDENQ
In words: differential scanning fluorimetry (DSF), SYPRO-Orange, 2 µM protein and 30 µM peptide. How it is done:
The binding of the modified pT peptide to 14-3-3ε was assessed using differential scanning fluorimetry (DSF) and surface plasmon resonance (SPR) measurements. The melting temperature (Tm) of 14-3-3ε-peptide complexes was determined by DSF using the BioRad CFX384 Touch realtime PCR. The protein unfolding was detected with a fluorescent SYPRO-orange dye. The assay was performed in 20 mM Tris, 150 mM NaCl, and 1 mM DTT PH7.4 buffer in a […] with a total volume of 20 μL, containing 2 and 30 μM, final concentrations of protein and peptide, respectively, and 500× dilution of the SYPRO-Orange dye stock. The excitation filter for the dye was 450-490 nm, and the emission filter was 560-580 nm. The temperature was held at 25° C. for 5 min and then increased from 25 to 95° C. at a rate of 0.3° C./ min, and fluorescence was recorded over time. Tm values were determined by plotting the first derivative of the melting curve.

The next series concerns the target T2, 14-3-3ε-(His)12 protein (UniProt P62258 1-255).
T2 sequence: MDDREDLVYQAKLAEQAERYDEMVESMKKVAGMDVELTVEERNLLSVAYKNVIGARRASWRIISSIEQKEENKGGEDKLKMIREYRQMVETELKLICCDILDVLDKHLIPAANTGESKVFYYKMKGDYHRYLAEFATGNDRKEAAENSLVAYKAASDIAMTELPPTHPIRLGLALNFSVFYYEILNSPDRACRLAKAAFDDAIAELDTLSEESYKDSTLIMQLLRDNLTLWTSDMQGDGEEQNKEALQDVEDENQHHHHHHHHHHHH
In words: SPR, Biacore 8K, 14-3-3ε-(His)12 on NTA chip, peptide 1 nM-2000 nM, 25° C., mean±SD. How it is done: For the SPR measurements, binding affinities of the modified pT peptide for 14-3-3ε were measured by SPR using a Biacore 8K Surface plasmon resonance instrument. 100 nM 14-3-3ε-(His)12 protein in 20 mM Tris, 150 mM NaCl, 50 μM EDTA, 0.005% Tween 20, pH 7.4 buffer was immobilized to a NiCl2 activated NTA chip at a flow rate of 5 μL/min for 10 min and then washed with the running buffer for 20 min. Then peptide solutions at a concentration range of 1 nM-2000 nM were injected cycle-wise at the flow rate of 30 μL/min for 1 min, and dissociation time was set for 3 min. All SPR experiments were performed at 25° C. […] At least three replicates were done for each peptide at similar conditions, and binding affinities (KD) are presented as mean±SD.
(SPR reads the build-up and loss of mass on a sensor chip optically.)

Series [2] deals with T3, 14-3-3ε (endogenous, in human SCC12B.2 squamous cell carcinoma cells) (human, UniProt P62258 1-255).
T3 sequence (looked up): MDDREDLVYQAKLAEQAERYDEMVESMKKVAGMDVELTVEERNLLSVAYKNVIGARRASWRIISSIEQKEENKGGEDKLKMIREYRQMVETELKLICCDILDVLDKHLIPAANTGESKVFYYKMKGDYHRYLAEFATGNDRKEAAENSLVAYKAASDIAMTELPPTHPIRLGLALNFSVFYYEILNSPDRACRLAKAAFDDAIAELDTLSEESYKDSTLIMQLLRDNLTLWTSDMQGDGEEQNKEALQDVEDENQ
In words: cell-based or functional assay.

Series [3] addresses T1, 14-3-3ε protein (purified, as used in …). In words: SPR.
For series [4] the target is unchanged. The experiment in a line: differential scanning fluorimetry (DSF), 14-3-3ε alone against 14-3-3ε with peptide. (Differential scanning fluorimetry follows unfolding on heating by fluorescence.)

B1: modified pT peptide, Ac-Arg-Thr-Lys-Ser-Arg-Thr(PO3^2-)-Trp-Ala-Tic-NH2 (peptide)
peptide: RTKSRTWAX
modifications: N-terminal acetyl; phospho-Thr at position 6; Tic residue at position 9; C-terminal amide
notes: Synthetic modification of peptide pT; also called peptide pT modified with a Tic residue
As for B1, the “increase in melting temperature (ΔTm) of 14-3-3ε” value in series [1] amounted to 4.43 ° C. Binding with 14-3-3ε-(His)12 protein was put at a Kd of 0.0309 µM.

On to WYWK-NH2 [targeting peptide ES1P2, Trp-Tyr-Trp-Lys-NH2], for which the “IC50, dose response curve in SCC12B.2 cells (Neutral Red Cell Viability assay)” value in series [2] worked out at 20.6 µM.

B2: first targeting peptide with a Pmb residue, Ac-Arg-Thr-Lys-Ser-Arg-Pmb-Trp-Ala-Gly-NH2 (peptide)
peptide: Ac-RTKSR[Pmb]WAG-NH2
notes: Synthetic analog of the pT peptide (CDC25A Thr507 site) in which the phospho-Thr is replaced by Pmb; also called phosphono-peptide
Consider B2, for which the Kd in series [3] turned out to be 0.009 µM. Also, the “increase in melting temperature (ΔTm) of 14-3-3ε” value in series [4] was determined as 3.6 ° C.

B3: peptide pS, Ac-Thr-Gln-Arg-Gln-Asn-Ser-(PO3^2-)-Ala-Pro-Arg-Met-Leu-Ser-Ser-Asn-NH2 (peptide)
peptide: Ac-TQRQN[pS]APRMLSSN-NH2
SMILES: CSCC[C@H](NC(=O)[C@H](CCCNC(=N)N)NC(=O)[C@@H]1CCCN1C(=O)[C@H](C)NC(=O)[C@H](COP(=O)(O)O)NC(=O)[C@H](CC(N)=O)NC(=O)[C@H](CCC(N)=O)NC(=O)[C@H](CCCNC(=N)N)NC(=O)[C@H](CCC(N)=O)NC(=O)[C@@H](NC(C)=O)[C@@H](C)O)C(=O)N[C@@H](CC(C)C)C(=O)N[C@@H](CO)C(=O)N[C@@H](CO)C(=O)N[C@@H](CC(N)=O)C(N)=O
Regarding B3, in series [2], the “IC50, dose response curve in SCC12B.2 cells (Neutral Red Cell Viability assay)” value came to 29 µM. Still for that read-out and setting: in the case of Ac-RTKSR[pT]WAGEKSKR-NH2 [peptide pT, Ac-Arg-Thr-Lys-Ser-Arg-Thr(PO3^2-)-Trp-Ala-Gly-Glu-Lys-Ser-Lys-Arg-NH2] it was 22.6 µM.

Usually Kd stands for a measure of binding affinity in units of concentration.
